The chains are these.
B1: VNAR clone E12 fused N-terminally to human IgG1 Fc (VNAR-hFc) (Fc fusion, not shown: a dimerising Fc or GST)
chain: ARVDQTPQTITKEEGESLTINCVLRTQDPALASTSWYRKKSGSTREETISKGGRYVETVNSGSKSFSLRINDLTVEDSGTYRCNVYFLLAPTKTKLQGIDVYGDGTAVTVNA
B2: VNAR clone F1 fused N-terminally to human IgG1 Fc (VNAR-hFc) (Fc fusion, not shown: a dimerising Fc or GST)
chain: ARVDQTPQTITKEEGESLTINCVLRVHGRALASTSWYRKKSGSTREETISKGGRYVETVNSGSKSFSLRINDLTVEDSGTYRCNVYGLSSGDIEGVKKIDVYGDGTAVTVNA
B3: VNAR clone F12 fused N-terminally to human IgG1 Fc (VNAR-hFc) (Fc fusion, not shown: a dimerising Fc or GST)
chain: B2 chain with S90F
B4: VNAR clone D1 fused N-terminally to human IgG1 Fc (VNAR-hFc) (Fc fusion, not shown: a dimerising Fc or GST)
chain: ARVDQTPQTITKEEGESLTINCVLRHNYSALASTSWYRKKSGSTREETISKGGRYVETVNSGSKSFSLRINDLTVEDSGTYRCNVYGISFIEEKIRYDFDVYGDGTAVTVNA
B5: VNAR clone H6 fused N-terminally to human IgG1 Fc (VNAR-hFc) (Fc fusion, not shown: a dimerising Fc or GST)
chain: ARVDQTPQTITKEEGESLTINCVLRTHSNALASTSWYRKKSGSTREETISKGGRYVETVNSGSKSFSLRINDLTVEDSGTYRCNVYAFLEIQPNIYHEFDVYGDGTAVTVNA
B6: VNAR clone H7 fused N-terminally to human IgG1 Fc (VNAR-hFc) (Fc fusion, not shown: a dimerising Fc or GST)
chain: ARVDQTPQTITKEEGESLTINCVLRYNNPALASTSWYRKKSGSTREETISKGGRYVETVNSGSKSFSLRINDLTVEDSGTYRCNVYFFPSFLVDKLQSHDVYGDGTAVTVNA
B7: VNAR clone G10 fused N-terminally to human IgG1 Fc (VNAR-hFc) (Fc fusion, not shown: a dimerising Fc or GST)
chain: ARVDQTPQTITKETGESLTINCVLRDSNCALSSTYWYRKKSGSTNEENISKGGRYVETVNSGSKSFSLKINDLTVEDSGTYRCKVVFKLFSGRACAGEKDVYGGGTVVTVNA
B8: VNAR clone H8 fused N-terminally to human IgG1 Fc (VNAR-hFc) (Fc fusion, not shown: a dimerising Fc or GST)
chain: ARVDQTPQTITKETGESLTINCVLRDSNCALPSTYWYRKKSGSTNEESISKGGRYVETVNSGSKSFSLRINDLVVEDSGTYRCKVGNYCIRLCYDMKFAVDVYGGGTAVTVNA
B9: VNAR clone H7A fused N-terminally to human IgG1 Fc (VNAR-hFc) (Fc fusion, not shown: a dimerising Fc or GST)
chain: PGVDQTEQTIKKEEGESVTIKCVMRVKYPALASTSRYRKKSGSREETISKGGRYVETVNYSSKSISVRINDMTVEDSGRYRCNVYEEYAVDCDALVYQDVYGDGTAVTVNA
B10: VNAR clone H12 fused N-terminally to human IgG1 Fc (VNAR-hFc) (Fc fusion, not shown: a dimerising Fc or GST)
chain: B2 chain with R29C, S90F, G91V
B11: VNAR clone F11 fused N-terminally to human IgG1 Fc (VNAR-hFc) (Fc fusion, not shown: a dimerising Fc or GST)
chain: ARVDQTPQTITKEEGESLTINCVLRGEFYALASTSWYRKKSGSTREETISKGGRYVETVNSGSKSFSLRINDLTVEDSGTYRCNVYGYRIFSPEVKGPNDVYGDGTAVTVNA
B12: VNAR clone G6 fused N-terminally to human IgG1 Fc (VNAR-hFc) (Fc fusion, not shown: a dimerising Fc or GST)
chain: ARVDQTPQTITKEEGESLTINCVLRVETRALASTSWYRKKSGSTREETISKGGRYVETVNSGSKSFSLRINDLTVEDSGTYRCNVYIRHYSEFTQAPFRDVYGDGTAVTVNA
B13: VNAR clone A8 fused N-terminally to human IgG1 Fc (VNAR-hFc) (Fc fusion, not shown: a dimerising Fc or GST)
chain: ARVDQTPQTITKEEGESLTINCVLRRNFQLASTSWYRKKSGSTREETISKGGRYVETVNSGSKSFSLRINDLTVEDSGTYRCNVYGFVEFAKNIVEFIDVYGDGTAVTVNA
B14: VNAR clone G12 fused N-terminally to human IgG1 Fc (VNAR-hFc) (Fc fusion, not shown: a dimerising Fc or GST)
chain: ARVDQTPQTITKETGESLTINCVLRDSNCALSSTYWYRKKSGSTNEALISKGGRYVETVNSGSKSFSLRINDLTVEDSGTYRCNVVQDLRDDCFFRDVYGGGTAVTVNA
B15: VNAR clone C6 fused N-terminally to human IgG1 Fc (VNAR-hFc) (Fc fusion, not shown: a dimerising Fc or GST)
chain: B14 chain with Q87Y
B16: VNAR clone B12 fused N-terminally to human IgG1 Fc (VNAR-hFc) (Fc fusion, not shown: a dimerising Fc or GST)
chain: ARVDQTPRSVTKETGESLTINCVLRDASYALGSTCWYRKKSGSTNEESISKGGRYVETVNSGSKSFSLRINDLTVEDGGTYRCGVARGWRTLNYLCDVRTGEWSCVWRAAACGDGTAVTVNA
B17: VNAR clone G3 fused N-terminally to human IgG1 Fc (VNAR-hFc) (Fc fusion, not shown: a dimerising Fc or GST)
chain: ARVDQTPQTITKETGESLTINCVLRDNNCALSTTYWYRKKSGSTNEENISKGGRYVETVNSGSKSFSLRINDLTVEDSGTYRCKVHFFPSFCNSTSIRSVDVYGGGTVVTVNA

Among the data in patent US20250263502A1 are EC50 and Binding [relative units] (relative units) values, retold here.

Residue numbers refer to the chain shown, from its start. Names may count otherwise.

Chain of Human serum albumin (human) (P02768 25-609 limits assumed): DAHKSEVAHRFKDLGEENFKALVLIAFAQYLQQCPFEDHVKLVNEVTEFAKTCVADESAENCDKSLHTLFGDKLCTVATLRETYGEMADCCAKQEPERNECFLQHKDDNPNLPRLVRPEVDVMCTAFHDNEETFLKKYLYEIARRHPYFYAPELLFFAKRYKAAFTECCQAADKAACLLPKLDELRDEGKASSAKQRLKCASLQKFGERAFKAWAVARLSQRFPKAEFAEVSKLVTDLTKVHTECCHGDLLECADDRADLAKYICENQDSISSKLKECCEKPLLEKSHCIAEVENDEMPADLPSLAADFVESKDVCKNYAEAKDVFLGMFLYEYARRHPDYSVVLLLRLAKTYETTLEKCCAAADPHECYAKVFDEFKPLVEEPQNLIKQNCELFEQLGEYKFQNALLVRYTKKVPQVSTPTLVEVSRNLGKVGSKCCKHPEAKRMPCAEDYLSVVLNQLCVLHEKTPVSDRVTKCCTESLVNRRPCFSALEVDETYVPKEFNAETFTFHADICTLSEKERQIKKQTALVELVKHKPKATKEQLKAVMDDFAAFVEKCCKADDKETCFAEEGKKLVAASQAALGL

One experiment has as its target ectodomain of murine CD98hc (mouse) (UniProt P10852). The experiment can be described thus: ELISA, purified VNAR-Fc titrated on coated CD98hc.
As usually defined, the EC50 is the concentration at which the effect is half-maximal. B1 gave an EC50 of 819 nM.
B2 came in with an EC50 of 3860 nM.
B3 had an EC50 of 72 nM.
With B4, the EC50 was 190 nM. This EC50 lies about 2.6-fold higher than the previous one.
The molecule B5 gave an EC50 of 86 nM.
B6 showed an EC50 of 504 nM. Compared with the last molecule, the EC50 is about 5.9-fold higher.

The next experiment deals with ectodomain of human CD98hc (human) (UniProt P08195). The experiment in a line: ELISA, expression medium of VNAR-hFc on coated protein. A general note: ELISA stands for enzyme-linked immunosorbent assay.
Chain of ectodomain of human CD98hc (human) (P08195 206-630): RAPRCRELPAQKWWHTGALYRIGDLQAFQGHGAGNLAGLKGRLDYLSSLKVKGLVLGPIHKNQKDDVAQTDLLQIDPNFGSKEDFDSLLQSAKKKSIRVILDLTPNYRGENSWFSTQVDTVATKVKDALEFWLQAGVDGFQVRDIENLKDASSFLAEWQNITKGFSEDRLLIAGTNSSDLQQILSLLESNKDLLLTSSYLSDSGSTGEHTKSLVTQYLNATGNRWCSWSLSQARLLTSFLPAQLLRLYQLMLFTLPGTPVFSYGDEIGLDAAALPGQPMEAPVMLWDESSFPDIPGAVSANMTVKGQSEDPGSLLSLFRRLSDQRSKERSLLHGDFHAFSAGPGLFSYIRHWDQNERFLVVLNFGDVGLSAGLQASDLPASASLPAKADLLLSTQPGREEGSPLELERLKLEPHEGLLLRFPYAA
In turn, B7 registered a Binding [relative units] (relative units) of 0.043.
Still for that read-out and setting: to B8 belongs 0.048; to B9, 0.043.
As to B10, the Binding [relative units] (relative units) came out at 0.046.
The molecule B11 showed a Binding [relative units] (relative units) of 3.03.
B12 came in with a Binding [relative units] (relative units) of 0.042.
In turn, B13 returned a Binding [relative units] (relative units) of 2.97.
Molecule B14 had a Binding [relative units] (relative units) of 0.044.
In the case of B15, the Binding [relative units] (relative units) is 0.041.
Regarding B16, the Binding [relative units] (relative units) came to 0.076.

In another experiment the target is ectodomain of murine CD98hc (mouse) (UniProt P10852). The experiment is described as above.
Chain of ectodomain of murine CD98hc (mouse) (P10852 100-526): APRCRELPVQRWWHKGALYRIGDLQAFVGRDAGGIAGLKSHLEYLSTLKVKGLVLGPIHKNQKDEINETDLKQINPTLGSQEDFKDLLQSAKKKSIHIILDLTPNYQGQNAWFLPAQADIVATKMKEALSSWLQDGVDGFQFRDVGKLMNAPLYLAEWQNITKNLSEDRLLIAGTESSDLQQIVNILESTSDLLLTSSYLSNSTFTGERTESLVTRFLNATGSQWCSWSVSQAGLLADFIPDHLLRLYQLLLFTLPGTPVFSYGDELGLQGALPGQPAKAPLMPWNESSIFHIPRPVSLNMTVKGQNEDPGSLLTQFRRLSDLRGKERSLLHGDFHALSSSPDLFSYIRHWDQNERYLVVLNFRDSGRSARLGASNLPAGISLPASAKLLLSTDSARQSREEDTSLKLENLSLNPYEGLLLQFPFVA
B7: the Binding [relative units] (relative units) was 0.041.
On to B8, for which the Binding [relative units] (relative units) amounted to 0.049.
B9 came in with a Binding [relative units] (relative units) of 0.043.
In turn, B1 returned a Binding [relative units] (relative units) of 0.078.
Molecule B2 registered a Binding [relative units] (relative units) of 0.115.
For B3, the Binding [relative units] (relative units) was found to be 0.563.
On the same count and under the same terms, the figure for B10 is 0.045; for B4 it is 0.417.
On to B11, for which the Binding [relative units] (relative units) was 0.096.
As to B12, the Binding [relative units] (relative units) is 0.041.
In turn, B5 had a Binding [relative units] (relative units) of 0.186.
Molecule B13 had a Binding [relative units] (relative units) of 0.135.
Molecule B6 had a Binding [relative units] (relative units) of 0.108.
Take B17: the Binding [relative units] (relative units) was 0.041.
Same read-out and setting: to B14 belongs 0.044.
B15: the Binding [relative units] (relative units) stood at 0.042.
Take B16: the Binding [relative units] (relative units) turned out to be 0.084.

Another experiment addresses Human serum albumin (human) (UniProt P02768). The experiment can be described thus: ELISA, expression medium of VNAR-hFc on coated protein (negative control).
Molecule B7 yielded a Binding [relative units] (relative units) of 0.051.
For the molecule B8, the Binding [relative units] (relative units) was found to be 0.059.
Regarding B9, the Binding [relative units] (relative units) worked out at 0.054.
As to B1, the Binding [relative units] (relative units) is 0.056.
On the same count and under the same terms, the figure for B2 is 0.073.
Molecule B3 displayed a Binding [relative units] (relative units) of 0.112.
In the case of B10, the Binding [relative units] (relative units) worked out at 0.055.
As to B4, the Binding [relative units] (relative units) stood at 0.074.
The molecule B11 showed a Binding [relative units] (relative units) of 0.072.
B12 yielded a Binding [relative units] (relative units) of 0.052.
B5: the Binding [relative units] (relative units) turned out to be 0.06.
B13: the Binding [relative units] (relative units) came to 0.065.
The molecule B6 gave a Binding [relative units] (relative units) of 0.072.
As to B17, the Binding [relative units] (relative units) is 0.053.
As to B14, the Binding [relative units] (relative units) came to 0.054.
Still for that read-out and setting: the figure for B15 is 0.052.
B16 gave a Binding [relative units] (relative units) of 0.081.
